By Kd is commonly meant a measure of binding affinity in units of concentration.

Assay in all cases: IEDB peptide-MHC binding, purified MHC/competitive/radioactivity; filed as Kd, often an IC50 or EC50 that approximates it; ≥ and ≤ were set here for values at or beyond the usual limits of such assays
Assay [1] has as its target HLA-A*03:01.
The target of assay [2] is HLA-A*11:01.
The target of assay [3] is HLA-A*68:01.
For assay [4], the target named is HLA-A*31:01.
Assay [5] concerns the target HLA-A*33:01.
[6] abbreviates: source organism: Vaccinia virus WR.
Setting [7] is: source organism: Mammarenavirus machupoense.
[8] abbreviates: source organism: SARS coronavirus Tor2.
[9] abbreviates: source organism: Dengue virus 2 Jamaica/1409/1983.
[10] abbreviates: source organism: Vaccinia virus Copenhagen.
[11] abbreviates: source organism: Lassa virus Josiah.
Where [12] appears, read: source organism: Lymphocytic choriomeningitis virus (strain Traub).

Turning to DTQMRTPLHK, the Kd in assay [1] (setting [6]) is 4160 nM; in assay [2] (setting [6]), 78 nM; in assay [3] (setting [6]), 1480 nM; in assay [4] (setting [6]), at least 52100 nM; in assay [5] (setting [6]) it was 12500 nM.

On to AQYKCVTIKY, for which the Kd in assay [1] (setting [6]) is 220 nM; in assay [2] (setting [6]) it was 80.1 nM; in assay [3] (setting [6]), 967 nM; in assay [4] (setting [6]), 2140 nM; in assay [5] (setting [6]), at least 21900 nM.

With SLELIIIHTK, the Kd was 16200 nM in assay [1] (setting [6]); 1300 nM in assay [2] (setting [6]); 8050 nM in assay [3] (setting [6]); 130 nM in assay [4] (setting [6]); at least 53400 nM in assay [5] (setting [6]).

As for LMAFANQIHH, the Kd in assay [1] (setting [7]) was 931 nM; in assay [2] (setting [7]) it was 15300 nM; in assay [3] (setting [7]) it was at least 47300 nM; in assay [4] (setting [7]), at least 22300 nM; in assay [5] (setting [7]) it was at least 70000 nM.

For the sequence SINVTIPEQY, the Kd in assay [1] (setting [6]) was 19100 nM; in assay [2] (setting [6]), 783 nM; in assay [3] (setting [6]), 5200 nM; in assay [4] (setting [6]), 8190 nM; in assay [5] (setting [6]), 12800 nM.

Consider ALKYLPIDK, for which the Kd in assay [1] (setting [8]) was 299 nM; in assay [2] (setting [8]) it was 878 nM; in assay [3] (setting [8]), 2370 nM; in assay [4] (setting [8]), 6570 nM; in assay [5] (setting [8]), at least 48500 nM.

Consider WVFGSTMNNK, for which the Kd in assay [1] (setting [8]) was 197 nM; in assay [2] (setting [8]), 208 nM; in assay [3] (setting [8]), 3.24 nM; in assay [4] (setting [8]), 5950 nM; in assay [5] (setting [8]), at least 70000 nM.

Consider AFQHQNSKK, for which the Kd was 13900 nM in assay [1] (setting [8]); 3000 nM in assay [2] (setting [8]); 3920 nM in assay [3] (setting [8]); 672 nM in assay [4] (setting [8]); at least 22600 nM in assay [5] (setting [8]).

Regarding ITLDTMDDMK, the Kd was 3190 nM in assay [1] (setting [6]); 42.3 nM in assay [2] (setting [6]); 122 nM in assay [3] (setting [6]); 16700 nM in assay [4] (setting [6]); at least 70000 nM in assay [5] (setting [6]).

As to ATSTGNYNYK, the Kd in assay [1] (setting [8]) was 4.34 nM; in assay [2] (setting [8]), 1.38 nM; in assay [3] (setting [8]), 9.61 nM; in assay [4] (setting [8]), 69.5 nM; in assay [5] (setting [8]), at least 26300 nM.

ITYKCPLLR: the Kd in assay [1] (setting [9]) was found to be 16.1 nM; in assay [2] (setting [9]) it was 63.9 nM; in assay [3] (setting [9]), 59.4 nM; in assay [4] (setting [9]), 11.6 nM; in assay [5] (setting [9]), 200 nM.

Regarding HTSVSAKQLR, the Kd in assay [1] (setting [6]) was determined as 2510 nM; in assay [2] (setting [6]), 274 nM; in assay [3] (setting [6]), 16.3 nM; in assay [4] (setting [6]) it was 162 nM; in assay [5] (setting [6]), 1140 nM.

Consider VTDLENRLK, for which the Kd was 2250 nM in assay [1] (setting [6]); 25.9 nM in assay [2] (setting [6]); 7250 nM in assay [3] (setting [6]); 13600 nM in assay [4] (setting [6]); 13100 nM in assay [5] (setting [6]).

Turning to KSVLDIISSK, the Kd in assay [1] (setting [10]) was determined as 24.5 nM; in assay [2] (setting [10]) it was 8.96 nM; in assay [3] (setting [10]) it was 267 nM; in assay [4] (setting [10]) it was 152 nM; in assay [5] (setting [10]), 19900 nM.

As to FVSLVKKNK, the Kd was at least 78000 nM in assay [1] (setting [6]); 120 nM in assay [2] (setting [6]); 215 nM in assay [3] (setting [6]); at least 77900 nM in assay [4] (setting [6]); at least 33600 nM in assay [5] (setting [6]).

For TSPGEIKPK, the Kd in assay [1] (setting [6]) is at least 61800 nM; in assay [2] (setting [6]) it was 1040 nM; in assay [3] (setting [6]), 4810 nM; in assay [4] (setting [6]), at least 22500 nM; in assay [5] (setting [6]), at least 77700 nM.

With NSISARALK, the equilibrium dissociation constant (Kd) in assay [1] (setting [6]) was found to be 78.7 nM; in assay [2] (setting [6]), 3.99 nM; in assay [3] (setting [6]) it was 4.9 nM; in assay [4] (setting [6]), 11.1 nM; in assay [5] (setting [6]), 6.53 nM.

For MLRLFDFNK, the Kd amounted to 84.6 nM in assay [1] (setting [11]); 50 nM in assay [2] (setting [11]); 571 nM in assay [3] (setting [11]); 129 nM in assay [4] (setting [11]); 527 nM in assay [5] (setting [11]).

For TTFVTPMLR, the Kd in assay [1] (setting [9]) was determined as 102 nM; in assay [2] (setting [9]), 79.2 nM; in assay [3] (setting [9]), 3.77 nM; in assay [4] (setting [9]), 16.5 nM; in assay [5] (setting [9]), 5.67 nM.

On to RSLQTIASKK, for which the Kd in assay [1] (setting [6]) is 50.3 nM; in assay [2] (setting [6]), 22.5 nM; in assay [3] (setting [6]) it was 1170 nM; in assay [4] (setting [6]) it was 183 nM; in assay [5] (setting [6]), at least 70000 nM.

KCHDHYLCR: the Kd in assay [1] (setting [12]) is 7630 nM; in assay [2] (setting [12]) it was 3270 nM; in assay [3] (setting [12]) it was at least 48000 nM; in assay [4] (setting [12]) it was 109 nM; in assay [5] (setting [12]), 1350 nM.

SMFWDGMDY: the Kd in assay [1] (setting [6]) came out at 1.02 nM; in assay [2] (setting [6]) it was 0.823 nM; in assay [3] (setting [6]), 11.9 nM; in assay [4] (setting [6]), 124 nM; in assay [5] (setting [6]) it was 10400 nM.

For the sequence HLYLQYIRK, the Kd came out at 0.172 nM in assay [1] (setting [8]); 14.8 nM in assay [2] (setting [8]); 1610 nM in assay [3] (setting [8]); 516 nM in assay [4] (setting [8]); 6900 nM in assay [5] (setting [8]).

For the sequence STSAFIDTIK, the dissociation constant (Kd) in assay [1] (setting [8]) is 1090 nM; in assay [2] (setting [8]) it was 15.6 nM; in assay [3] (setting [8]) it was 25.9 nM; in assay [4] (setting [8]) it was 8800 nM; in assay [5] (setting [8]) it was at least 47100 nM.

On to MSHLKVALY, for which the Kd in assay [1] (setting [6]) is 320 nM; in assay [2] (setting [6]), 1690 nM; in assay [3] (setting [6]), 147 nM; in assay [4] (setting [6]), 703 nM; in assay [5] (setting [6]), 18100 nM.

Turning to YFSKQTQTY, the Kd in assay [1] (setting [6]) was 17300 nM; in assay [2] (setting [6]), at least 27500 nM; in assay [3] (setting [6]), 1730 nM; in assay [4] (setting [6]) it was at least 25000 nM; in assay [5] (setting [6]), at least 30400 nM.

HIKTIAVSVY: the Kd in assay [1] (setting [6]) came out at 257 nM; in assay [2] (setting [6]), 8240 nM; in assay [3] (setting [6]), 5820 nM; in assay [4] (setting [6]) it was 914 nM; in assay [5] (setting [6]), 13800 nM.

For RMLDTSEKY, the Kd in assay [1] (setting [6]) is 4980 nM; in assay [2] (setting [6]) it was 9870 nM; in assay [3] (setting [6]), at least 77700 nM; in assay [4] (setting [6]) it was at least 66200 nM; in assay [5] (setting [6]) it was at least 68100 nM.

For GIGTFLHYK, the Kd in assay [1] (setting [6]) was determined as 7.8 nM; in assay [2] (setting [6]) it was 0.585 nM; in assay [3] (setting [6]) it was 24 nM; in assay [4] (setting [6]) it was 65.7 nM; in assay [5] (setting [6]), 3780 nM.

For the sequence SAGFSLWIY, the Kd in assay [1] (setting [8]) came to 572 nM; in assay [2] (setting [8]), 116 nM; in assay [3] (setting [8]), 4040 nM; in assay [4] (setting [8]), 393 nM; in assay [5] (setting [8]), 17300 nM.

For ESRDRKWLYY, the Kd in assay [1] (setting [6]) was 11500 nM; in assay [2] (setting [6]), at least 59000 nM; in assay [3] (setting [6]), 10800 nM; in assay [4] (setting [6]), at least 70000 nM; in assay [5] (setting [6]), at least 70000 nM.

As to QLEQPYVFIK, the Kd in assay [1] (setting [8]) was 6680 nM; in assay [2] (setting [8]) it was 2990 nM; in assay [3] (setting [8]), 17200 nM; in assay [4] (setting [8]), 11300 nM; in assay [5] (setting [8]), at least 70000 nM.

Consider MLNRVQILMK, for which the Kd in assay [1] (setting [6]) turned out to be 1.28 nM; in assay [2] (setting [6]), 130 nM; in assay [3] (setting [6]), 698 nM; in assay [4] (setting [6]) it was 619 nM; in assay [5] (setting [6]), 2780 nM.

In the case of ISRDELWAR, the dissociation constant Kd in assay [1] (setting [6]) was at least 78000 nM; in assay [2] (setting [6]) it was at least 22200 nM; in assay [3] (setting [6]), 946 nM; in assay [4] (setting [6]), 47.8 nM; in assay [5] (setting [6]) it was 1.69 nM.

On to SLLSLREVK, for which the Kd in assay [1] (setting [8]) worked out at 249 nM; in assay [2] (setting [8]), 21.2 nM; in assay [3] (setting [8]), 1190 nM; in assay [4] (setting [8]), 187 nM; in assay [5] (setting [8]), 8140 nM.

With HMVRCCKVY, the Kd in assay [1] (setting [6]) was 399 nM; in assay [2] (setting [6]), at least 40000 nM; in assay [3] (setting [6]), 780 nM; in assay [4] (setting [6]) it was 10700 nM; in assay [5] (setting [6]), at least 45800 nM.

Take RSLQTIASK: the dissociation constant Kd was 1.5 nM in assay [1] (setting [6]); 7.32 nM in assay [2] (setting [6]); 187 nM in assay [3] (setting [6]); 4.3 nM in assay [4] (setting [6]); at least 77700 nM in assay [5] (setting [6]).

These data come from the Immune Epitope Database (IEDB).
